The numbers were not newly measured in article PMC11076006, which cites them from elsewhere.

The target in the data set is TLR4 (Homo sapiens) (UniProt O00206).
UniProt O00206, sequence (O00206 24-839): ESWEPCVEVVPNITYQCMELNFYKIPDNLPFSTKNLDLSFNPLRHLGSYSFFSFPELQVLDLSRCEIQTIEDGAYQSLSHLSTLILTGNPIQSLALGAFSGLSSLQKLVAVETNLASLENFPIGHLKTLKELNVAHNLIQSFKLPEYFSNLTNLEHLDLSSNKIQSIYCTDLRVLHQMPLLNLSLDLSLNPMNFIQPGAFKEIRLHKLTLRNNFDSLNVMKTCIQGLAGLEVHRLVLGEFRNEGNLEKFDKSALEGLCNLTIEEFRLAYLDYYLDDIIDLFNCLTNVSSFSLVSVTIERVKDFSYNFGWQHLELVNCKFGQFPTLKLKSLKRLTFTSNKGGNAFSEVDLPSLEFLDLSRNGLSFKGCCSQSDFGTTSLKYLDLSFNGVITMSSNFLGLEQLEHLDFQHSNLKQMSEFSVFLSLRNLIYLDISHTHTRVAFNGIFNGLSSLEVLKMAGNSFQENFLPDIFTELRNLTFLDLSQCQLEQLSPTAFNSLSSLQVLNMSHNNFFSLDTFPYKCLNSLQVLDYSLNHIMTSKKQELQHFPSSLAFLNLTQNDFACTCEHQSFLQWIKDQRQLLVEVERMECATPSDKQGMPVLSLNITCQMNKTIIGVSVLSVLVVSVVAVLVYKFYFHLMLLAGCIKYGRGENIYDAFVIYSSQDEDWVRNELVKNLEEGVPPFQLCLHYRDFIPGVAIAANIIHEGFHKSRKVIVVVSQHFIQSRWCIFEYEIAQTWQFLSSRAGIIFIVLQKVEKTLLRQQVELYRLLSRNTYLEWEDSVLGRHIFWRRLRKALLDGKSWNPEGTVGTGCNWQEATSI

The Kd is the equilibrium constant for the complex coming apart. For S100A9 (from UniProt P06702), the dissociation constant (Kd) is 3.2 nM.
